This note sets out measurements from patent US12559545 (VANDERBILT UNIVERSITY, dated 2026).

Test [1] concerns the target T1, full-length HeV-RBP expressed on the surface of transfected cells (Hendra virus, UniProt O89343 182-603).
T1 sequence: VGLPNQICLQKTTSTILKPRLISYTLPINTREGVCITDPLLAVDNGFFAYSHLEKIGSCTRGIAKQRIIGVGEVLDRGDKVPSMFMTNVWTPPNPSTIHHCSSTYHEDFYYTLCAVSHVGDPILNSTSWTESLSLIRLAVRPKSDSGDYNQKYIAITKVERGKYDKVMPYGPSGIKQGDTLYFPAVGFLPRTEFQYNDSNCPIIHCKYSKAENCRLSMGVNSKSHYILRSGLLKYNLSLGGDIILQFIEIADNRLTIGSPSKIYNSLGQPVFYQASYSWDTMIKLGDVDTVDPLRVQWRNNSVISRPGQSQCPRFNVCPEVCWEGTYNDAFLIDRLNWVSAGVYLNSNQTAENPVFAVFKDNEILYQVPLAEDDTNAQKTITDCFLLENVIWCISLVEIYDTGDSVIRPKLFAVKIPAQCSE

For test [2], the target named is T2, full-length NiVM-RBP expressed on the surface of transfected cells (Nipah virus, strain Malaysia, UniProt Q9IH62 182-602).
T2 sequence: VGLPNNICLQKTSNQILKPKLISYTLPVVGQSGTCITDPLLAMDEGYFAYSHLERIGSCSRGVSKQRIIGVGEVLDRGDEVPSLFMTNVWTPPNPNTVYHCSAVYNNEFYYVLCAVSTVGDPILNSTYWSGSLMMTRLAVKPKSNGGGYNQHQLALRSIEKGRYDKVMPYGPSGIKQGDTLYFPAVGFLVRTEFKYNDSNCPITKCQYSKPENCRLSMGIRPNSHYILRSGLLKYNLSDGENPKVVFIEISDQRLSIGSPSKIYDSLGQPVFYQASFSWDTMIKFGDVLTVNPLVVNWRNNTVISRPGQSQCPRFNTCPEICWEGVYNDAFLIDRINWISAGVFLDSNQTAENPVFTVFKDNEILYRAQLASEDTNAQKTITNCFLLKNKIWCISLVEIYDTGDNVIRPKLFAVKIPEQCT

The target in test [3] is full-length NiVB-RBP expressed on the surface of transfected cells (Nipah virus, strain Bangladesh, UniProt Q9IH62 182-602).
The target in test [4] is T3, HeV RBP on live Hendra virus (Hendra virus, UniProt O89343 182-603).
T3 sequence: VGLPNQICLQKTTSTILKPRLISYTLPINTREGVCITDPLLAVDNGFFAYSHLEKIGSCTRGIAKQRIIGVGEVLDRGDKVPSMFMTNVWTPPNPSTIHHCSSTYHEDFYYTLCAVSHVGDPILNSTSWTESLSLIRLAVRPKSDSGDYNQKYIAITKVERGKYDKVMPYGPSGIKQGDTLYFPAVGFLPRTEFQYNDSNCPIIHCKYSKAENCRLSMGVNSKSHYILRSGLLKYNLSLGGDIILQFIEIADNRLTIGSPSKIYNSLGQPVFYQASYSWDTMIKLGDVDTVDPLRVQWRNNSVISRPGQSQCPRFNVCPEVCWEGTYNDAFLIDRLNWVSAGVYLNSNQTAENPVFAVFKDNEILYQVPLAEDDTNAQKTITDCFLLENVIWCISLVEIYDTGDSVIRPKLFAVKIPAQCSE
In words: cell-based or functional assay.

Test [5] concerns the target NiVB RBP on live Nipah virus Bangladesh (Nipah virus, strain Bangladesh, UniProt Q9IH62 182-602). The test can be described thus: cell-based or functional assay.
For test [6], the target named is T4, HeV-RBP head domain (residues 185-604), recombinant soluble (Hendra virus, UniProt O89343 185-603).
T4 sequence: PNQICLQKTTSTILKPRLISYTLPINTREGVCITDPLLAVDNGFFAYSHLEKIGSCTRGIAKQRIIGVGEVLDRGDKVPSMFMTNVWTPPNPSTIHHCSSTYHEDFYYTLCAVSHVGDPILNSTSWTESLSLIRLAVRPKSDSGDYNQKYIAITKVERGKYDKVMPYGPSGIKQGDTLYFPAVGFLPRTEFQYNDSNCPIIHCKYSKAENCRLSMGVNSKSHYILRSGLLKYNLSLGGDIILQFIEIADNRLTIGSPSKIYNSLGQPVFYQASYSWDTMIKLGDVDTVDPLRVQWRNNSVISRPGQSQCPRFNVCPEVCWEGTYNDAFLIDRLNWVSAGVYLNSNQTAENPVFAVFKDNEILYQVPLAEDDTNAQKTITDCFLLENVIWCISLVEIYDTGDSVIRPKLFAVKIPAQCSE
In words: ELISA, RBP head domain coated on plate, hybridoma IgG.

The target of test [7] is T5, NiVB-RBP head domain (residues 185-602), recombinant soluble (Nipah virus, strain Bangladesh, UniProt Q9IH62 185-602). The description is as above.
For test [8], the target named is T6, NiVM-RBP head domain (residues 183-602), recombinant soluble (Nipah virus, strain Malaysia, UniProt Q9IH62 183-602).
T6 sequence: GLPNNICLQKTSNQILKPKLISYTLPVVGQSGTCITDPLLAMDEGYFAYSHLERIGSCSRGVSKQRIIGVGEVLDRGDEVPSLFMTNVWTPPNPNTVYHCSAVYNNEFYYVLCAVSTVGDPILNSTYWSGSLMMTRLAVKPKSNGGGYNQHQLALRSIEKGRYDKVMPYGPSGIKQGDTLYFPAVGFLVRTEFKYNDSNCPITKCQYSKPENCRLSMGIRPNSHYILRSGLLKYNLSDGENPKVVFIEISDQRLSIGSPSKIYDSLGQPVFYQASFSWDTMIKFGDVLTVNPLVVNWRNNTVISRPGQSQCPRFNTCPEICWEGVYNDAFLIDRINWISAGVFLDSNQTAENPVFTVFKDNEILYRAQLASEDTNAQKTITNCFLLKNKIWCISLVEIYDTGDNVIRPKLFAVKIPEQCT
Described as above.

Test [9] has as its target T4, HeV-RBP head domain (residues 185-604), ….
Test [10] has as its target T5, NiVB-RBP head domain (residues …).
Test [11] concerns the target T6, NiVM-RBP head domain (residues …).

B1: HENV-32 (antibody, V domains shown)
VH: QVQLVQSGAEVKKPGSSVKVSCKVSGGIFNRETINWVRQAPGQGLEWMGRITPIVDVPNYPRKFRGRVTITADKSTSTVYMELSGLRFEDTAIYFCARFRGHNYFDPWGQGTLVTVSS
VL: SYVLTQPPSVSVAPGQTARITCGGNNIGGKSVHWYQQKPGQAPVLVVYDDRDRPSGIPERFSGSNSGDTASLTISRVDAGDEADYFCQVWDNASDEAVFGGGTKLTVL
With B1, the 50% effective concentration (EC50) in test [1] was determined as 0.68 µg/mL; in test [2], 0.76 µg/mL; in [3] it was 0.836 µg/mL; in test [6], 0.36 µg/mL; in test [7], 0.96 µg/mL; in test [8], 0.42 µg/mL. Also, the “IC50, plaque reduction neutralization of live virus” value is 0.27 µg/mL in [4] and 0.38 µg/mL in [5]. The figures for the “Area under the curve” value in [6], in [7] and in test [8] were 3.71, 6.6 and 8, respectively.

B2: HENV-32 Fab (Fab, V domains shown)
VH: QVQLVQSGAEVKKPGSSVKVSCKVSGGIFNRETINWVRQAPGQGLEWMGRITPIVDVPNYPRKFRGRVTITADKSTSTVYMELSGLRFEDTAIYFCARFRGHNYFDPWGQGTLVTVSS
VL: SYVLTQPPSVSVAPGQTARITCGGNNIGGKSVHWYQQKPGQAPVLVVYDDRDRPSGIPERFSGSNSGDTASLTISRVDAGDEADYFCQVWDNASDEAVFGGGTKLTVL
On to B2, for which the dissociation constant Kd in [9] amounted to 2.1 nM; in test [10] it was 2.8 nM; in [11], 2.2 nM.
